In assay [1] the target is T1, recombinant PfCSP (rPfCSP, residues 21-375) (Plasmodium falciparum, UniProt P19597 21-375).
T1 construct: also called recombinant wild type PfCSP; not shown: C-terminal Avi-tag, HRV3C-processing tag and His-purification tag
Nature of the assay: ITC, one binding event. Background: ITC needs no label: the signal is the heat of the interaction.

Assay [2] addresses T2, PfCSP on P. falciparum sporozoites (PfSPZ) (Plasmodium falciparum, UniProt P19597 19-374). The assay is described as follows: ELISA on coated PfSPZ, OD405nm. On the technique in general: ELISA stands for enzyme-linked immunosorbent assay.
The target of assay [3] is T1, recombinant PfCSP (rPfCSP, residues …). The assay is described as follows: ELISA on coated rPfCSP, OD405nm.
The target is the same in assay [4]. The assay is described as follows: ITC, mAb injected into rPfCSP, one set of sites (Kd = 51 nM).
Assay [5] has the same target. The assay is described as follows: biolayer interferometry, biotinylated CSP on the sensor, whole IgG in solution; apparent KD. A general note: BLI is a label-free optical method that tracks binding on a fibre tip over time.
Assay [6] has the same target. Nature of the assay: ITC, mAb injected into rPfCSP, one set of sites (Kd = […] nM).
Assay [7] addresses T2, PfCSP on P. falciparum sporozoites …. The assay is described as follows: immunofluorescence assay on PfSPZ.
Assay [8] concerns the target T1, recombinant PfCSP (rPfCSP, residues …). Nature of the assay: ITC, CIS43 Fab injected into rPfCSP, two sets of sites, first set.
For assay [9] the target is unchanged. Nature of the assay: ITC, CIS43 Fab injected into rPfCSP, two sets of sites, second set.
For assay [10] the target is unchanged. The assay is described as follows: ITC, first binding event.
Assay [11] has the same target. The assay is described as follows: ITC, second binding event.
The target is the same in assay [12]. The assay is described as follows: ITC, mAb injected into rPfCSP, one set of sites (Kd = […] nM).

Residue numbers refer to the chain shown, from its start.

T2 sequence (P19597 19-374 limits assumed): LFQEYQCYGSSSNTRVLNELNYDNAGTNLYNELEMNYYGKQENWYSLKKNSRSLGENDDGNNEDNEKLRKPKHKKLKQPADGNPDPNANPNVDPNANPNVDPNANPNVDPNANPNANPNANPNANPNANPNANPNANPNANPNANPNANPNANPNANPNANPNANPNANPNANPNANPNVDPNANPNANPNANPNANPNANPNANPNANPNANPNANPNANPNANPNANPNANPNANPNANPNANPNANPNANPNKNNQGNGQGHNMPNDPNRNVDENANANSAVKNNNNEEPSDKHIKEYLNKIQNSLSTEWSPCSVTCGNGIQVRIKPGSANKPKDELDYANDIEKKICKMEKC
T1 sequence (P19597 21-375): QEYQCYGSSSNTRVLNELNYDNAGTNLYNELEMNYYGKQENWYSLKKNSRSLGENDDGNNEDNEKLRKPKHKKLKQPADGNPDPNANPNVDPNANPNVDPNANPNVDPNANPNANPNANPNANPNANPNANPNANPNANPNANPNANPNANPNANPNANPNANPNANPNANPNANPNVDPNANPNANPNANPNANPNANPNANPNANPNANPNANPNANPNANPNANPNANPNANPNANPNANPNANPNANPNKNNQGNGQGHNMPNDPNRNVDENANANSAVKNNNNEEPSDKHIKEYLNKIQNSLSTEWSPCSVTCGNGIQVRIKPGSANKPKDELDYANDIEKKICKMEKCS

B1: mAb CIS42 (antibody, V domains shown)
VH: QVQLVQSGSELKKPGASVKVSCKTSGYTFTTYAMNWVRQAPGQGLEWMGWINTNTGNPTYAPGFTGRFVFSFDTSVSTAYLQISSLKAEDTAVYYCARVYSYGVPFDYWGQGTLVTVSS
VL: QSVLTQPASVSGSPGQSITISCTATSSNVGSFNLVSWYQHHPGKAPKLIIHEVSKRPSGASNRFSGSKSGNTASLTISGLQAEDEADYYCCSYVGSDTWVFGGGTKLTVL
Regarding B1, the Kd in [1] stood at 51 nM. The binding result in assay [2] is recorded as “binds”. Moreover, the EC50 (read off the curve) – broadly, the concentration at which the effect is half-maximal – in assay [3] is ~5 ng/mL. Further, in assay [4], the “-TΔS” value is 12.8 kcal/mol, the ΔG was -9.9 kcal/mol and the ΔH was -22.7 kcal/mol. Further, the Kd in assay [5] came out at 0.76 nM.

B2: mAb CIS23 (antibody, V domains shown)
VH: EVQLVESGGGVVQPGRSLRLSCAASGFTFSSYGMYWVRQAPGKGLEWVALISHDGSNKFYADSVKGRFTISRDNSKNTLYLQMNSLRAEDTAVYYCAKDLGYSSSWGYFDYWGQGTLVTVSS
VL: EIVLTQSPATLSLSPGERATLSCRASQSVSSYLAWYQQKPGQAPRLLIYDASNRATGIPARFSGSGSGTDFTLTISSLEPEDFAVYYCQQRSNWYTFGQGTKLEIK
For the molecule B2, in assay [2], the binding result was “binds”. For the same molecule, in assay [6], the “-TΔS” value worked out at 13.1 kcal/mol, the ΔG was -10.4 kcal/mol and the ΔH was -23.5 kcal/mol.

B3: CIS04 (antibody, V domains shown)
VH: QVQLVQSGAEVKKPGASVKVSCKASGYTFTSYAIHWVRQAPGQRLEWMGWIKAGNGDTRYSQKFQGRVTITRDTSATTAYMELSSLRSEDTAVYYCGLLTVLTPDDAFDIWGQGTMVTVSS
VL: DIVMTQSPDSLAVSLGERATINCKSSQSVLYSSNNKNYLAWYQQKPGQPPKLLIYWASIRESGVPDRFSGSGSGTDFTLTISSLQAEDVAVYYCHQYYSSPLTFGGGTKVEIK
notes: also called mAb CIS04
Regarding B3, the binding result in [7] is reported as “binds”.

B4: CIS43 Fab (Fab, V domains shown)
VH: B3 VH with D57N, G66D, A76T, G97A
VL: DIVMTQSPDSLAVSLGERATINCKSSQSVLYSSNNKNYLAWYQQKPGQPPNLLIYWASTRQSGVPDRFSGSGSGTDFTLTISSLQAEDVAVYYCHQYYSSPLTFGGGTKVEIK
As for B4, in assay [8], the “-TΔS1” value worked out at 12 kcal/mol, the Kd was determined as 16 nM, the ΔG1 is -10.6 kcal/mol and the ΔH1 was -22.6 kcal/mol. Moreover, in assay [9], the “-TΔS2” value is -4.3 kcal/mol, the Kd stood at 250 nM, the ΔG2 was -9 kcal/mol and the ΔH2 was -4.7 kcal/mol.

B5: CIS06 (antibody, V domains shown)
VH: QVQLVQSGPEVKKPGTSVKVSCKASGFTFSSSAVQWVRQARGQRLEWIGWIVVGSGKTKYAQNFQQRVTITRDMSTSTAYLELSTLRSEDTAVYYCAAVVNWNDESGFDPWGQGTLVTVSS
VL: DIQMTQSPSSLSAFVGDRVTITCRASQSIGTYLNWYQQKVGQAPKLLIYTASSLRSGVPSRFSGSGSGTDFTLTITSLQPEDFATYYCQQSYSTYTFGQGTKLEIK
notes: also called mAb CIS06
As to B5, the “EC50 (read off the curve)” value in assay [3] was ~100 ng/mL.

B6: mAb CIS34 (antibody, human IgG1, kappa, V domains shown)
VH: QVQLVESGGGVVQPGRSLRLSCAASGFTFSSYGIHWVRQAPGKGLEWVAVIWYDGSKKYYGDSVKGRFTISRDNSKNTLYLQMNSLRVEDTAVYYCARAVIAATGTRGYWFDPWGQGTLVTVSS
VL: DIIMTQSPVSLSASVGDRVTITCRASQSISSHLNWYQQKPGKAPKLLIYAASSLQSGVPSRFSGSGSGTDFTLTISSLQPEDFATYSCQQTYRGFTFAPGTKVDIKR
Regarding B6, the Kd in assay [10] came out at 31 nM; in assay [11], 80 nM; in [5], 1.5 nM. For the same molecule, in assay [2], the binding result is recorded as “binds”. In assay [3], the concentration giving a half-maximal response (EC50 (read off the curve)) is ~3 ng/mL.

B7: mAb10 (antibody, human IgG1, kappa, V domains shown)
VH: EVQLVESGGGVVQPGRSLRLSCEASGFTFSTYGMHWVRQAPGKGLEWVAIIWHDGSKKYHADSVRGRFTISRDNSKNTLYLQMNSLRAEDTAVYFCARVGNYGGDWGAGFDYWGQGTLVTVSS
VL: DIQMTQSPSFLSASVGDRVTIACRASQSISSWLAWYQQKPGKAPKLLIYHASSLESGVPSRFSGSASGTEFALTISSLQPDDFATYYCQQYSSYWTFGQGTKVEIKR
As for B7, in [12], the “-TΔS” value came out at 22.7 kcal/mol and the ΔH was -33 kcal/mol.

For the origin of these results see patent US20190375831A1 (US Dept. of Health and Human Services, published 2019).
